Data reported in patent US20220259289A1 (Janssen / Centocor, published 2022).

How the values were obtained:
Assay in all cases: ELISA, bacterial lysate on plate-bound antigen, luminescence
[1] = molecular target: unrelated Fc-fused recombinant protein (negative control)
[2] = molecular target: T1, recombinant biotinylated human CD137 protein (Fc-fusion protein, R&D Systems 838-4B) (human, UniProt Q07011 24-186, biotinylated (site not stated))
T1 construct: Bought Fc fusion; The ELISA used the same antigen as the panning; also called CD137-Fc; biotinylated CD137; not shown: Fc part of the bought fusion protein
Procedure: (§1) Streptavidin-coated Maxisorp plates (Nunc catalog 436110) were blocked for 1 h in Starting Block T20 (Pierce) and then coated with biotinylated CD137 (using same antigen as in panning) or negative controls (an unrelated Fc-fused recombinant protein and human serum albumin) for 1 h. Plates were rinsed with TBST and diluted lysate was applied to plates for 1 h. Following additional rinses, wells were treated with HRP-conjugated anti-Centyrin antibody (PAB25) for 1 h and then assayed with POD (Roche catalog 11582950001).

human serum albumin = molecular target: T2, human serum albumin (human, UniProt P02768 25-609)
T2 construct: Negative control antigen of the screening ELISA; also called HSA
T2 sequence (P02768 25-609 limits assumed): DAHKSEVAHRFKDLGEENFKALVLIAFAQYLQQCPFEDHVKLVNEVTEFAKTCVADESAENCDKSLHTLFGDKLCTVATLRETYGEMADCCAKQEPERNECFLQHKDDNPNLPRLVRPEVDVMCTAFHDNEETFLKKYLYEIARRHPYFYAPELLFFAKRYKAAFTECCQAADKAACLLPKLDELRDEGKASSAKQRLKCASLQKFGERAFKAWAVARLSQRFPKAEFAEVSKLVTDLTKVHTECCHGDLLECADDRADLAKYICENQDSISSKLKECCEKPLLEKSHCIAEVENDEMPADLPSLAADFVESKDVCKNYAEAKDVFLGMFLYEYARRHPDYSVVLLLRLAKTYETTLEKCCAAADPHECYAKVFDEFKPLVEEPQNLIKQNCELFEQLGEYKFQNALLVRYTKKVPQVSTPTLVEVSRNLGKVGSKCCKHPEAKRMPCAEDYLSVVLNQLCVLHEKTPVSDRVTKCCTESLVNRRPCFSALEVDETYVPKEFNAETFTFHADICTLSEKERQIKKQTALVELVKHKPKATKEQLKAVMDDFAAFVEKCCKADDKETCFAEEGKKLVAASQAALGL
Procedure: as §1

Row | Binder | ELISA Fc Control (RLU) [1] | ELISA CD137-Fc (RLU) [2] | ELISA HSA (RLU) (human serum albumin)
1 | ISOP120GR5P1A10 (designed binder, not shown: small tags and cut ends, FN3 domain (Centyrin); tested as E. coli lysate) LPAPKNLVVSRVTEDSARLSWTAPDAAFDSFEIPYIEVETIGEAIWLHVPGSERSYDLTGLKPGTEYSVGINGVKGGHTSNPLSARFTT | 400 RLU | 627000 RLU | 400 RLU
2 | ISOP120HR5P1H7 (designed binder, not shown: small tags and cut ends, FN3 domain (Centyrin); tested as E. coli lysate) LPAPKNLVVSRVTEDSARLSWTAPDAAFDSFDIYYGEPGNLGEAIVLTVPGSERSYDLTGLKPGTEYLVTIYGVKGGDYSSPLSAIFTT | 640 RLU | 1.53e+06 RLU | 480 RLU
3 | ISOP120ER5P1A8 (designed binder, not shown: small tags and cut ends, FN3 domain (Centyrin); tested as E. coli lysate) LPAPKNLVVSRVTEDSARLSWTAPDAAFDSFDIYYFEHPVGGEAIVLTVPGSERSYDLTGLKPGTEYLVTIYGVKGGYLSMPLSAIFTT | 400 RLU | 1.9e+06 RLU | 320 RLU
4 | ISOP120ER5P1B4 (designed binder, not shown: small tags and cut ends, FN3 domain (Centyrin); tested as E. coli lysate) LPAPKNLVVSRVTEDSARLSWTAPDAAFDSFSILYGEPPALGEAIVLTVPGSERSYDLTGLKPGTEYWVTIYGVKGGVFSHPLSAIFTT | 400 RLU | 499000 RLU | 400 RLU
5 | ISOP120FR5P1C2 (designed binder, not shown: small tags and cut ends, FN3 domain (Centyrin); tested as E. coli lysate) LPAPKNLVVSRVTEDSARLSWTAPDAAFDSFDINYFEQPKGGEAIVLTVPGSERSYDLTGLKPGTEYLVTIYGVKGGPYSPPLSAIFTT | 240 RLU | 389000 RLU | 400 RLU
6 | ISOP120FR5P1F1 (designed binder, not shown: small tags and cut ends, FN3 domain (Centyrin); tested as E. coli lysate) LPAPKNLVVSRVTEDSARLSWTAPDAAFDSFTIYYFENENGGEAIVLTVPGSERSYDLTGLKPGTEYLVTIYGVKGCDWSDPLSAIFTT | 480 RLU | 1.23e+06 RLU | 640 RLU
7 | ISOP120HR5P1A3 (designed binder, not shown: small tags and cut ends, FN3 domain (Centyrin); tested as E. coli lysate) LPAPKNLVVSRVTEDSARLSWTAPDAAFDSFEIYYAEFGYYGEAIVLTVPGSERSYDLTGLKPGTEYTVTIYGVKGGWYSTPLSAIFTT | 560 RLU | 1.08e+06 RLU | 240 RLU
8 | ISOP120FR5P1A11 (designed binder, not shown: small tags and cut ends, FN3 domain (Centyrin); tested as E. coli lysate) LPAPKNLVVSRVTEDSARLSWTAPDAAFDSFTIYYFENENGGEAIVLTVPGSERSYDLTGLKPGTEYLVTIYGVKGGHWSRPLSAIFTT | 480 RLU | 920000 RLU | 480 RLU
9 | ISOP120ER5P1C6 (designed binder, not shown: small tags and cut ends, FN3 domain (Centyrin); tested as E. coli lysate) LPAPKNLVVSRVTEDSARLSWTAPDAAFDSFSIYYGEWHALGEAIVLTVPGSERSYDLTGLKPGTEYVVTIYGVKGGTYSLPLSAISTT | 320 RLU | 495000 RLU | 400 RLU
10 | ISOP120HR5P1F9 (designed binder, not shown: small tags and cut ends, FN3 domain (Centyrin); tested as E. coli lysate) LPAPKNLVVSRVTEDSARLSWTAPDAAFDSFYIYYREHWTIGEAIVLTVPGSERSYDLTGLKPGTEYLVTIYGVKGGAYSNPLSAIFTT | 400 RLU | 1.18e+06 RLU | 400 RLU
11 | ISOP120HR5P1H4 (designed binder, not shown: small tags and cut ends, FN3 domain (Centyrin); tested as E. coli lysate) LPAPKNLVVSRVTEDSARLSWTAPDAAFDSFDILYLEPYQEGEAIVLTVPGSERSYDLTGLKPGTEYLVTIYGVKGGYYSLPLSAIFTT | 480 RLU | 630000 RLU | 320 RLU
12 | ISOP120ER5P1A11 (designed binder, not shown: small tags and cut ends, FN3 domain (Centyrin); tested as E. coli lysate) LPAPKNLVVSRVTEDSARLSWTAPDAAFDSFEIYYKELRAEGEAIVLTVPGSERSYDLTGLKPGTEYLVTIYGVKGGSVSIPLSAIFTT | 320 RLU | 1.14e+06 RLU | 320 RLU
13 | ISOP120GR5P1H11 (designed binder, not shown: small tags and cut ends, FN3 domain (Centyrin); tested as E. coli lysate) LPAPKNLVVSRVTEDSARLSWTAPDAAFDSFYIAYWEYWGNGEAIGLIVPGSERSYDLTGLKPGTEYHVHIVGVKGGAGSVPLWANFTT | 640 RLU | 1.31e+06 RLU | 320 RLU
14 | ISOP120AR5P1D2 (designed binder, not shown: small tags and cut ends, FN3 domain (Centyrin); tested as E. coli lysate) LPAPKNLVVSRVTEDSARLSWDFAYFKFDSFLIQYQESEKVGEAIVLTVPGSERSYDLTGLKPGTEYTVSIYGVGRFYTVYYSNPLSAIFTT | 640 RLU | 908000 RLU | 640 RLU
15 | ISOP120AR5P1C5 (designed binder, not shown: small tags and cut ends, FN3 domain (Centyrin); tested as E. coli lysate) LPAPKNLVVSRVTEDSARLSWTLPNIHFDSFLIQYQESEKVGEAIVLTVPGSERSYDLTGLKPGTEYTVSIYGVGRHYTVYDSNPLSAIFTT | 320 RLU | 425000 RLU | 160 RLU

Further lines, results first:

Row | ELISA Fc Control (RLU) [1] | ELISA CD137-Fc (RLU) [2] | ELISA HSA (RLU) (human serum albumin) | Binder
16 | 640 RLU | 1.29e+06 RLU | 400 RLU | ISOP120HR5P1A6 (designed binder, not shown: small tags and cut ends, FN3 domain (Centyrin); tested as E. coli lysate) LPAPKNLVVSRVTEDSARLSWTAPDGAFDSFEIYYLEGGRGEAIVLTVPGSERSYDLTGLKPGTEYLVTIYGIKCGWASNPLSAIFTT
17 | 480 RLU | 1.05e+06 RLU | 320 RLU | ISOP120GR5P1A11 (designed binder, not shown: small tags and cut ends, FN3 domain (Centyrin); tested as E. coli lysate) LPAPKNLVVSRVTEDSARLSWTAPDAAFDSFGIPYWEWTTEGEAIQLIVPGSERSYDLTGLKPATEYHVHIVGVKGGSFSEPLPADFTT
18 | 240 RLU | 502000 RLU | 480 RLU | ISOP120GR5P1C10 (designed binder, not shown: small tags and cut ends, FN3 domain (Centyrin); tested as E. coli lysate) LPAPKNLVVSRVTEDSARLSWTAPDGAFDSFEIPYIEVETIGEAIWLHVPGSERSYDLTGLKPGTEYSVGINGVKGGHTSNPLSARFTT
19 | 320 RLU | 347000 RLU | 480 RLU | ISOP120HR5P1G4 (designed binder, not shown: small tags and cut ends, FN3 domain (Centyrin); tested as E. coli lysate) LPAPKNLVVSRVTEDSARLSWTAPDAAFDSFEIYYREYWYSGEAIVLTVPGSERSYDLTGLKPGTEYLVTIYGVKGGWYSDPLSAIFTT
20 | 160 RLU | 1.35e+06 RLU | 400 RLU | ISOP120ER5P1B6 (designed binder, not shown: small tags and cut ends, FN3 domain (Centyrin); tested as E. coli lysate) LPAPKNLVVSRVTEDSARLSWTAPDAAFDSFDIYYGEHWKLGEAIVLTVQGSERSYDLTGLKPGTEYLVTIYGVKGGQWSFPLSAIFTT
21 | 400 RLU | 460000 RLU | 560 RLU | ISOP120FR5P1H5 (designed binder, not shown: small tags and cut ends, FN3 domain (Centyrin); tested as E. coli lysate) LPAPKNLVVSRVTEDSARLSWTAPDAAFDSLQIYYFEWVVGGEAIVLTVPGSERSYDLTGLKLGTEYLVTIYGVKGGNFSDPLSAIFTT
22 | 400 RLU | 987000 RLU | 480 RLU | ISOP120HR5P1A7 (designed binder, not shown: small tags and cut ends, FN3 domain (Centyrin); tested as E. coli lysate) LPAPKNLVVSRVTEDSARLSWTAPDAAFDSFEIYYAEPRYYGEAIVLTVPGSERSYDLTGLKPGTEYTVTIYGVKGGYYSSPLSAIFTT
23 | 480 RLU | 405000 RLU | 400 RLU | ISOP120HR5P1D9 (designed binder, not shown: small tags and cut ends, FN3 domain (Centyrin); tested as E. coli lysate) LPAPKNLVVSRVTEDSARLSWTAPDAAFDSFDIYYRELDFQGEAIVLTVPGSERSYDLTGLKPGTEYLVIIYGVKGGSYSYTLSAIFTT
24 | 320 RLU | 2.22e+06 RLU | 400 RLU | ISOP120HR5P1H8 (designed binder, not shown: small tags and cut ends, FN3 domain (Centyrin); tested as E. coli lysate) LPAPKNLVVSRVTEDSARLSWTAPDAAFDSFDIYYYELRLGGEAIVLTVPGSERSYDLTGLKPGTEYLVTIYGVKGGYYSGPLSAIFTT
25 | 320 RLU | 589000 RLU | 480 RLU | ISOP120ER5P1H6 (designed binder, not shown: small tags and cut ends, FN3 domain (Centyrin); tested as E. coli lysate) LPAPKNLVVSRVTEDSARLSWTAPDAAFDSFSIYYGEWHALGEAIVLTVPGSERSYDLTGLKPGTEYVVTIYGVKGGTYSLPLSAIFTT
26 | 320 RLU | 1.19e+06 RLU | 320 RLU | ISOP120HR5P1B4 (designed binder, not shown: small tags and cut ends, FN3 domain (Centyrin); tested as E. coli lysate) LPAPKNLVVSRVTEDSARLSWTAPDAAFDSFSIYYGEYYNLGEAIVLTVPGSERSYDLTGLKPGTEYVVTIYGVKGGGYSNPLSAIFTT
27 | 320 RLU | 1.1e+06 RLU | 320 RLU | ISOP120HR5P1D7 (designed binder, not shown: small tags and cut ends, FN3 domain (Centyrin); tested as E. coli lysate) LPAPKNLVVSRVTEDSARLSWTAPDAAFDSFDIYYLESWTRGEAIVLTVPGSERSYDLTGLKPGTEYLVTIYGVKGGSYSRPLSAIFTT
28 | 400 RLU | 2.04e+06 RLU | 320 RLU | ISOP120HR5P1G6 (designed binder, not shown: small tags and cut ends, FN3 domain (Centyrin); tested as E. coli lysate) LPAPKNLVVSRVTEDSARLSWTAPDAAFDSFEIYYFELRLGGEAIVLTVPGSERSYDLTGLKPGTEYLVTIYGVKGGLDSQPLSAIFTT
29 | 320 RLU | 708000 RLU | 240 RLU | ISOP120AR5P1C4 (designed binder, not shown: small tags and cut ends, FN3 domain (Centyrin); tested as E. coli lysate) LPAPKNLVVSRVTEDSARLSWAFQWHIFDSFLIQYQESEKVGEAIVLTVPGSERSYDLTGLKPGTEYTVSIYGVGQPYTVYDSNPLSAIFTT
30 | 320 RLU | 875000 RLU | 160 RLU | ISOP120GR5P1B11 (designed binder, not shown: small tags and cut ends, FN3 domain (Centyrin); tested as E. coli lysate) LPAPKNLVVSRVTEDSARLSWTAPDAAFDSFNIKYWEANLYGEAIVLTVPGSERSYGLTGLKPGTEYRVHIRGVKGGINSFPLVAVFTT
